# Source: article PMC8908386
# Target: FLAG-MTA1^C (UniProt Q13330)
# Assay: affinity purification with mass spectrometry
# UniProt Q13330, sequence (Q13330 449-715): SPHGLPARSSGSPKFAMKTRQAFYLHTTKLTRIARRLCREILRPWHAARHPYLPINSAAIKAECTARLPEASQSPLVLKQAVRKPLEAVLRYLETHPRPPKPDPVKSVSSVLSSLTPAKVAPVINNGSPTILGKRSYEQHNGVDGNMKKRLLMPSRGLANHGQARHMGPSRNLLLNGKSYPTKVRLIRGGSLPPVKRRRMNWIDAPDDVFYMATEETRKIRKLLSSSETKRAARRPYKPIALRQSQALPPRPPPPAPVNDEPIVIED
substance,measurement,value
HA-RBBP4 (from UniProt Q09028 1-425) (natural protein),stoichiometry N (RBBP per MTA^C),2.5
